Tests used:
Assay type in all cases: cell-based, human
AR [1] = experiment: AR transactivation assay, MMTV-CAT reporter, transient transfection (Example 1); details: for AR transcription activity with cotransfected coactivator: wild type AR
Experimental: Human prostate cancer DU145 or PC3 cells, or human lung carcinoma cells NCI H1299 were grown in Dulbecco's minimal essential medium (DMEM) containing penicillin (25 U/ml), streptomycin (25˜g/ml), and 5% fetal calf serum (FCS). One hour before transfection, the medium was changed to DMEM with 5% charcoal-stripped FCS. […] A β-galactosidase expression plasmid, pCMV-β-gal, was used as an internal control for transfection efficiency.
The medium was changed 24 hr posttransfection and the cells treated with either steroid hormones or hydroxyflutamide, and cultured for an additional 24 hr. Cells were harvested and assayed for CAT activity after the cell lysates were normalized by using β-galactosidaseas an internal control. Chloramphenicol acetyltransferase (CA) activity was visualized by PhosphorImager (Molecular Dynamics) and quantitated by ImageQuant software (Molecular Dynamics).

AR [2] = experiment: AR transactivation reporter assay (CAT/luciferase) (Example 3); details: for effect of ARA70N construct on AR transactivation: COS-1 cells, 10 nM T, MMTV-LUC
Experimental: 21. […] Further adding GAL-DBD (lane 1 and 2) or GAL-DBD-ARA70N with wild type (lane 3 and 4) or mutant (lane 5-8) FXXLF motifs to the cells. (B) Effect of wild type and mutant FXXLF motifs ARA70N on AR transactivation in COS-1 cells. […] 0.5 ng SV40-Renila Luciferase was used as an internal control. Relative luciferase activity was calculated by dual luciferase system.
411. Human prostate cancer DU145 and PC-3 cells were maintained in Dulbecco's Minimum Essential Medium (DMEM) containing penicillin (25 U/ml), streptomycin (25 μg/ml), and 5% fetal calf serum (FCS). Human LNCaP cells were maintained in RPMI containing penicillin (25 U/ml), streptomycin (25 μg/ml), and 10% FCS. Transfections were performed using the calcium phosphate precipitation method, as previously described (Dynlacht et al. (1991) Cell 66, 563-576). Briefly, 4×10^5 cells were plated on 60-mm dishes 24 hours before transfection, and the medium was changed to DMEM with 5% charcoal-dextran stripped FCS (CS-FBS) one hour before transfection. Transfection medium contained a constant amount of reporter plasmid and indicated amounts of pSG5-receptor, ARA70, or pCMX-GAL fusion construct using pSG5 as a carrier to provide equal amounts of transfected DNA. […] After another 24 hours, the cells were harvested for chloramphenicol transferase (CAT) or luciferase assays. At least three independent experiments were carried out in each case. Superfect (Qiagen) was used for transfection in LNCaP cells. The transfection conditions followed the manufacturer's protocol. Cell extracts were prepared and assayed for CAT or luciferase activity (Promega) and normalized against β-galactosidase or Renilla luciferase activity as indicated. All data were the mean±SD results from three to six independent experiments.
Target sequence in this assay (P10275 whole entry, the tested form may be a part): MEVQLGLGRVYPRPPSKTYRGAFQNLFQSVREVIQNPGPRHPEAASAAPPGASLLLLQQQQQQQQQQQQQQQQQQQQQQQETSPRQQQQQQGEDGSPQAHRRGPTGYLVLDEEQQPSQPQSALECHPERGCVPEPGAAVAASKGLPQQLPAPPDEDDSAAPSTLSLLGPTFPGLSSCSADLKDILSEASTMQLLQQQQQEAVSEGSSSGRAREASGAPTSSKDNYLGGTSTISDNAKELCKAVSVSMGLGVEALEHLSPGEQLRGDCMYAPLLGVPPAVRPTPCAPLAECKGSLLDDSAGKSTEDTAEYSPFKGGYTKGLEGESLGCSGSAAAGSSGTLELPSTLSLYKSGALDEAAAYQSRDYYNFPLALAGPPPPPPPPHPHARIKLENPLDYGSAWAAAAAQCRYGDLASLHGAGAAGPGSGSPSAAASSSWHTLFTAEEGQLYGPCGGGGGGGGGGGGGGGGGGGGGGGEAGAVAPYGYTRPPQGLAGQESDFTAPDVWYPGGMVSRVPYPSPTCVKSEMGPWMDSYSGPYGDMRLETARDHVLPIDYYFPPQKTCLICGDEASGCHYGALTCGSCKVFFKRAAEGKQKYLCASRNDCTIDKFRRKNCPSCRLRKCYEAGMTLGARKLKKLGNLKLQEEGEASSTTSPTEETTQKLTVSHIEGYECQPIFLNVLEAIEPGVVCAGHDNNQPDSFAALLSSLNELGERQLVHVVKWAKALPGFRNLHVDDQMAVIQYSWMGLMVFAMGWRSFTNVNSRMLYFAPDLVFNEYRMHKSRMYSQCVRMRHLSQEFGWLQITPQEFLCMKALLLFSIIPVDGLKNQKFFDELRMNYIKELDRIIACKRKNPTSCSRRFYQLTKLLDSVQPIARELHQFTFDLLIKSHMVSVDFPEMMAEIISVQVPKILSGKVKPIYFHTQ

PSA = PSA northern and western blot in LNCaP cells (Example 3); details: 1 nM DHT
Text: 20. […] (A) ARA70-N2 can serve as a dominant-negative to inhibit coregulator enhanced AR activity in DU145 cells. The pCMV-β-gal construct was used as an internal control, and the relative CAT activity was normalized by the β-gal activity. Data represent the mean±S.D. of four independent experiments. (B) ARA70-N2 can serve as a dominant-negative repressor to compete with the function of endogenous coregulators and inhibit AR transactivation in LNCaP cells. (C) ARA70-N2 can serve as a dominant-negative repressor to inhibit the expression of PSA mRNA in LNCaP cells. Human prostate cancer LNCaP cells were transfected with 4 and 8 μg of ARA70-N2 for 3 hours. […] The blot containing 20 μg total RNA in each lane was hybridized with a PSA specific cDNA probe. […] (D) ARA70-N2 can inhibit PSA protein expression in a dominant-negative manner. 4×10^6 LNCaP cells were plated on 100-mm dishes 24 hours before transfection. […] The blot containing 70 μg total cell lysate in each lane was hybridized with a PSA specific antibody. The same membrane was hybridized with a specific antibody for β-actin for equal protein loading.

AR [3] = experiment: Mammalian two-hybrid CAT assay, interaction with AR in DU145 cells (Example 1)
Text: 368. The mammalian two-hybrid system employed was essentially the protocol of Clontech (California), with the following modifications. In order to obtain better expression, the GAL4 DBD (a.a. 1-147) was fused to pSGS under the control of an SV40 promoter, and named pGALO.
369. The hinge and LBD of wtAR were then inserted into pGALO. Similarly, the VPI6 activation domain was fused to pCMX under the control of a CMV promoter, and designated pCMX-VP16 (provided by Dr. R. M. Evan).
Target sequence in this assay (P10275 669-900 limits assumed): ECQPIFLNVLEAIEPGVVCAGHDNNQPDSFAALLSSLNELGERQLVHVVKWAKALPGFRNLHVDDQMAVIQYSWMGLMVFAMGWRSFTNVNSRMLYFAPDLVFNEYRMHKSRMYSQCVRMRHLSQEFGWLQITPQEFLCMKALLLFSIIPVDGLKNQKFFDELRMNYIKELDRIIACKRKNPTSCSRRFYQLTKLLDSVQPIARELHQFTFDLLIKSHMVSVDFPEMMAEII

B1: ARA55251-444: C-terminus of ARA55 (a.a. 251-444 of SEQ ID NO:4) (protein)
chain: EKDGAPFCPECYFERFSPRCGFCNQPIRHKMVTALGTHWHPEHFCCVSCGEPFGDEGFHEREGRPYCRRDFLQLFAPRCQGCQGPILDNYISALSLLWHPDCFVCRECFAPFSGGSFFEHEGRPLCENHFHARRGSLCPTCGLPVTGRCVSALGRRFHPDHFACTFCLRPLTKGSFQERAGKPYCQPCFLKLFG
modifications: Homo sapien
AR [1]; PC3 cells, endogenous ARA55, 10 nM DHT
  effect on AR transcription activity: dramatically reduced AR transcription activity

B2: ARA70-N2: ARA70 region between amino acids 176-401, dominant-negative repressor (protein, UniProt Q13772 176-401, looked up, fragment)
chain: GPFLEKRGCISMPEQKSASGIVAVPFSEWLLGSKPASGYQAPYIPSTDPQDWLTQKQTLENSQTSSRACNFFNNVGGNLKGLENWLLKSEKSSYQKCNSHSTTSSFSIEMEKVGDQELPDQDEMDLSDWLVTPQESHKLRKPENGSRETSEKFKLLFQSYNVNDWLVKTDSCTNCQGNQPKGVEIENLGNLKCLNDHLEAKKPLSTPSMVTEDWLVQNHQDPCKVE
AR [2]; DU145 cells
  effect on ARA70N-enhanced AR transactivation: inhibit ARA70N-enhanced AR transactivation
PSA
  effect on PSA mRNA and protein expression: repressed PSA mRNA

B3: ARA55: AR coactivator, 444 aa polypeptide with high homology to mouse hic5 (protein)
chain: ANFNQSGNIADSSLSFTFTNSSNGPNLITTQTNSQALSQPIASSNVHDNFMNNEITASKIDDGNNSKPLSPGWTDQTAYNAFGITTGMFNTTTMDDVYNYLFDDEDTPPNPKKEMPRSGAPKERPAEPLTPPPSYGHQPTGQSGESSGASGDKDHLYSTVCKPRSPKPAAPAAPPFSSSSGVLGTGLCELDRLLQELNATQFNITDEIMSQFPSSKVASGEQKEDQSEDKKRPSLPSSPSPGLPKASATSATLELDRLMASLPDFRVQNHLPASGPTQPPVVSSTNEGSPSPPEPTAKGSLDTMLGLLQSDLSRRGVPTQAKGLCGSCNKPIAGQVVTALGRAWHPEHFVCGGCSTALGGSSFFEKDGAPFCPECYFERFSPRCGFCNQPIRHKMVTALGTHWHPEHFCCVSCGEPFGDEGFHEREGRPYCRRDFLQLFAPRCQGCQGPILDNYISALSLLWHPDCFVCRECFAPFSGGSFFEHEGRPLCENHFHARRGSLCPTCGLPVTGRCVSALGRRFHPDHFACTFCLRPLTKGSFQERAGKPYCQPCFLKLFG
AR [1]; DHT 10^−11 to 10^−8 M, all three receptors
  enhancement of transactivation of wtAR, mARt877s and mARe708k: 4-8 fold
AR [1]; DU145 cells, 10 nM DHT, AR:ARA55 up to 1:4.5
  further increase of the DHT induction: 5.3 fold
AR [1]; DU145 cells, 10 nM DHT, with ARA55
  AR transcription activity with coactivator: 22.8 fold
AR [1]; PC3 cells
  increase of AR transcription activity upon transfection with exogenous ARA55: 4 fold

B4: Rb: retinoblastoma protein (protein, UniProt P06400 2-928, looked up)
Retinoblastoma-associated …: PPKTPRKTAATAAAAAAEPPAPPPPPPPEEDPEQDSGPEDLPLVRLEFEETEEPDFTALCQKLKIPDHVRERAWLTWEKVSSVDGVLGGYIQKKKELWGICIFIAAVDLDEMSFTFTELQKNIEISVHKFFNLLKEIDTSTKVDNAMSRLLKKYDVLFALFSKLERTCELIYLTQPSSSISTEINSALVLKVSWITFLLAKGEVLQMEDDLVISFQLMLCVLDYFIKLSPPMLLKEPYKTAVIPINGSPRTPRRGQNRSARIAKQLENDTRIIEVLCKEHECNIDEVKNVYFKNFIPFMNSLGLVTSNGLPEVENLSKRYEEIYLKNKDLDARLFLDHDKTLQTDSIDSFETQRTPRKSNLDEEVNVIPPHTPVRTVMNTIQQLMMILNSASDQPSENLISYFNNCTVNPKESILKRVKDIGYIFKEKFAKAVGQGCVEIGSQRYKLGVRLYYRVMESMLKSEEERLSIQNFSKLLNDNIFHMSLLACALEVVMATYSRSTSQNLDSGTDLSFPWILNVLNLKAFDFYKVIESFIKAEGNLTREMIKHLERCEHRIMESLAWLSDSPLFDLIKQSKDREGPTDHLESACPLNLPLQNNHTAADMYLSPVRSPKKKGSTTRVNSTANAETQATSAFQTQKPLKSTSLSLFYKKVYRLAYLRLNTLCERLLSEHPELEHIIWTLFQHTLQNEYELMRDRHLDQIMMCSMYGICKVKNIDLKFKIIVTAYKDLPHAVQETFKRVLIKEEEYDSIIVFYNSVFMQRLKTNILQYASTRPPTLSPIPHIPRSPYKFPSSPLRIPGGNIYISPLKSPYKISEGLPTPTKMTPRSRILVSIGESFGTSEKFQKINQMVCNSDRVLKRSAEGSNPPKPLKKLRFDIEGSDEADGSKHLPGESKFQQKLAEMTSTRTRMQKQKMNDSMDTSNKEEK
AR [3]
  induced CAT activity in mammalian two-hybrid assay: 3 fold
AR [1]; DU145 cells, 1 nM DHT
  AR transcription activity with cotransfected coactivator: 21 fold
AR [1]; DU145 cells, 10 nM E2
  AR transcription activity with cotransfected coactivator: 12 fold

B5: pSG5-ARA70N-AXXLF: ARA70N with FXXLF motif mutated to AXXLF (protein)
chain: MNTFQDQSGSSSNREPLLRCSDARRDLELAIGGVLRAEQQIKDNLREVKAQIHSCISRHLECLRSREVWLYEQVDLIYQLKEETLQQQAQQLYSLLGQFNCLTHQLECTQNKDLANQVSVCLERLGSLTLKPEDSTVLLFEADTITLRQTITTFGSLKTIQIPEHLMAHASSANIGPFLEKRGCISMPEQKSASGIVAVPFSEWLLGSKPASGYQAPYIPSTDPQDWLTQKQTLENSQTSSRACNFFNNVGGNLKGLENWLLKSEKSSYQKCNSHSTTSSFSIEMEKVGDQELPDQDEMDLSDWLVTPQESHKLRKPENGSRETSEKFKLLFQSYNVNDWLVKTDSCTNCQGNQPKGVEIENLGNLKCLNDHLEAKKPLSTPSMVTEDWLVQNHQDPCKVE
AR [2]
  effect of ARA70N construct on AR transactivation: marginal induction effect

B6: pSG5-ARA70N-FXXAA: ARA70N with FXXLF motif mutated to FXXAA (protein)
chain: MNTFQDQSGSSSNREPLLRCSDARRDLELAIGGVLRAEQQIKDNLREVKAQIHSCISRHLECLRSREVWLYEQVDLIYQLKEETLQQQAQQLYSLLGQFNCLTHQLECTQNKDLANQVSVCLERLGSLTLKPEDSTVLLFEADTITLRQTITTFGSLKTIQIPEHLMAHASSANIGPFLEKRGCISMPEQKSASGIVAVPFSEWLLGSKPASGYQAPYIPSTDPQDWLTQKQTLENSQTSSRACNFFNNVGGNLKGLENWLLKSEKSSYQKCNSHSTTSSFSIEMEKVGDQELPDQDEMDLSDWLVTPQESHKLRKPENGSRETSEKFKLLFQSYNVNDWLVKTDSCTNCQGNQPKGVEIENLGNLKCLNDHLEAKKPLSTPSMVTEDWLVQNHQDPCKVE
AR [2]
  effect of ARA70N construct on AR transactivation: marginal induction effect
